Test results from US20240400677A1 (ELECTRA THERAPEUTICS, published 2024).

Key:
[1] = target: T1, human SIRPβ1 on CHO cells (co-transfected with DAP12) (human, UniProt O00241 30-398); test: flow cytometry
T1 construct: whole, on cells; co-transfected with DAP12; also called Human SIRPβ1 CHO

[2] = target: T2, cynomolgus monkey SIRPα on CHO cells (cynomolgus monkey, UniProt A0A2K5VYQ9 31-507); test: flow cytometry
T2 construct: whole, on cells; also called Cyno SIRPα CHO
T2 sequence: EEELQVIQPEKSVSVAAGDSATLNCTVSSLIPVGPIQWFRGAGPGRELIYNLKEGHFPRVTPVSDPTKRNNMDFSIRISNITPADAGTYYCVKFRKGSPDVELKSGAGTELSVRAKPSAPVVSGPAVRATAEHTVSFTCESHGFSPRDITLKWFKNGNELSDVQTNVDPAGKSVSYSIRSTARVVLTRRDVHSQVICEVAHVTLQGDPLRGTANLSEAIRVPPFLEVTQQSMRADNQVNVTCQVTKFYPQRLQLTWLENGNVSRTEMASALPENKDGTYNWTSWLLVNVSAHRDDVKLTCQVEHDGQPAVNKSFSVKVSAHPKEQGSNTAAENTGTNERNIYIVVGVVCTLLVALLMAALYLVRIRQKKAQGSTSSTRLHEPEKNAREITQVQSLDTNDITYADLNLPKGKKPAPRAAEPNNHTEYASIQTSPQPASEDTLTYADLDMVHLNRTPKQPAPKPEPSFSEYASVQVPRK

[3] = target: T3, human SIRPγ-His monomer protein (human, UniProt Q9P1W8 29-360); test: BLI Octet, V5-scFv PPE captured, SIRP-His 500 nM
T3 construct: also called hSIRPγ
T3 sequence (Q9P1W8 29-360 limits assumed): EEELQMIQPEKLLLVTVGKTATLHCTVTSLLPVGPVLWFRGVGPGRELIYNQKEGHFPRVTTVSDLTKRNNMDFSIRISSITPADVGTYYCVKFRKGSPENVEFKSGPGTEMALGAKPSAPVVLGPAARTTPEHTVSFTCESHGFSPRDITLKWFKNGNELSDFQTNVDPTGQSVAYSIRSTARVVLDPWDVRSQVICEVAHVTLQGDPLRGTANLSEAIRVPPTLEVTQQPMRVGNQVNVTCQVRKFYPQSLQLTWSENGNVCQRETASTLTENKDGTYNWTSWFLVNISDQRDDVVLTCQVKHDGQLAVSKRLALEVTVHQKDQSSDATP

[4] = target: T4, cynomolgus monkey SIRPγ-His monomer protein (cynomolgus monkey, UniProt Q9P1W8 29-359 (human entry), limits assumed); test: BLI Octet, captured scFv PPE, cyno SIRP
T4 construct: also called Cyno SIRPγ; Cyno SIRPγ-His
T4 chain: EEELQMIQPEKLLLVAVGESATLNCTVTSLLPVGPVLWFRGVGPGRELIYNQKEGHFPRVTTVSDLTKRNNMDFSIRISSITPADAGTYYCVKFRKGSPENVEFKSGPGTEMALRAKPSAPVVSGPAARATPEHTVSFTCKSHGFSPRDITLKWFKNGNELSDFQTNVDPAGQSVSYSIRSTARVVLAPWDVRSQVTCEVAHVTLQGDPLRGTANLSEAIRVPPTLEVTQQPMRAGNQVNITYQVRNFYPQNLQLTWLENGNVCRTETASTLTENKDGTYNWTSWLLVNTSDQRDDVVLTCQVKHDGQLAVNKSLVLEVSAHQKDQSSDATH
Experimental: Unique binders were further tested for binding to human SIRPαV1, human SIRPαV2, and human SIRPβ1. Briefly, biotinylated anti-V5 was immobilized onto streptavidin biosensors. Each V5-tagged SIRPγ scFv antibody as crude PPE was captured by the anti-V5 antibody. SIRP-His monomer protein at 500 nM was exposed to the biosensor for binding to SIRP scFv. The biosensors were then exposed to wash buffer to measure off-rate kinetics. The resulting association and dissociation kinetics (kdis) was analyzed. […] Similarly, cross-reactivity to cynomolgus monkey SIRPγ, cynomolgus monkey SIRPα, and cynomolgus monkey SIRPβ1 were tested.

[5] = target: T5, cynomolgus monkey SIRPγ on CHO cells (cynomolgus monkey, UniProt Q9P1W8 29-386 (human entry)); test: flow cytometry, myc-scFv PPE
T5 construct: also called Cyno SIRPγ CHO
T5 chain: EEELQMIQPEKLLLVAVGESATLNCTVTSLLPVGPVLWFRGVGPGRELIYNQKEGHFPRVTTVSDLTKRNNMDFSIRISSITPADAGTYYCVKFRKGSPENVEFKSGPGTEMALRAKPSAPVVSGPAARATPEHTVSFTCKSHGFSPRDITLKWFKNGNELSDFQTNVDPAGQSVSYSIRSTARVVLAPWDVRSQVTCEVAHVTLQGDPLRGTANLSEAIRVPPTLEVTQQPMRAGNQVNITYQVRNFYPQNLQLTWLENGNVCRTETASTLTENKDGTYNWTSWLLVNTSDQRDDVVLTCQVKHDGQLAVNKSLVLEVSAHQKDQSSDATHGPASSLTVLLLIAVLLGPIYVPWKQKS
In short: (§1)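 Flow cytometry on stable CHO transfectants; antibody titration; fluorescent anti-human IgG detection; MFI per concentration. myc-tagged scFv: crude PPE on SIRP-expressing CHO and parental CHO-K1; fold change <2.0 = non-binder.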

[6] = target: T6, human SIRPγ on stably transfected CHO cells (human, UniProt Q9P1W8 29-387); test: flow cytometry, myc-scFv PPE
T6 construct: also called Human SIRPγ CHO
T6 sequence (Q9P1W8 29-387 limits assumed): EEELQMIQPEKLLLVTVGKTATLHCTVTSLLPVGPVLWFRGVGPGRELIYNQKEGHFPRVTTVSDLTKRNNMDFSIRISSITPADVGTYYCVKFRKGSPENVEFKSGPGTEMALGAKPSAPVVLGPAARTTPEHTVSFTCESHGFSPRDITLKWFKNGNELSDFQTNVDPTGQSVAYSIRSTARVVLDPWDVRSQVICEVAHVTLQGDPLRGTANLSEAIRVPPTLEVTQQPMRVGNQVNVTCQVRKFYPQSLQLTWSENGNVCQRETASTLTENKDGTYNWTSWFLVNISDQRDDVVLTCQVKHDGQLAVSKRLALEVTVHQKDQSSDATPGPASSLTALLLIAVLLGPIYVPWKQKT
In short: as §1

[7] = target: T1, human SIRPβ1 on CHO cells …; test: flow cytometry, CHO transfectants, anti-human IgG
In short: as §1

[8] = target: T6, human SIRPγ on stably transfected CHO …; test: flow cytometry, CHO transfectants, anti-human IgG
In short: as §1

[9] = target: T2, cynomolgus monkey SIRPα on CHO cells; test: flow cytometry, CHO transfectants, anti-human IgG
In short: as §1

T1 sequence (O00241 30-398): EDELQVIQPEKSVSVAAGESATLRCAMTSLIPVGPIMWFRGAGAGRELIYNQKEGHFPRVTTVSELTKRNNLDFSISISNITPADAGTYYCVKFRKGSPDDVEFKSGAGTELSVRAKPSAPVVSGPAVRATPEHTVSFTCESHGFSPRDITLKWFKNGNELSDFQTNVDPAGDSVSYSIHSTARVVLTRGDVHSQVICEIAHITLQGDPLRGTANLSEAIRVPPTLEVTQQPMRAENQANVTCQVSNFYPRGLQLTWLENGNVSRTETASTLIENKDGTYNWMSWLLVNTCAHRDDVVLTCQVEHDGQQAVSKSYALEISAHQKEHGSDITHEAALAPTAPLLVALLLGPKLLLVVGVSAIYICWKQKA

Binder	binding result [1]	binding result [2]	kdis [3] [s⁻¹]	binding result [4]	MFI fold change over parental CHO [5] [fold]	MFI fold change over parental CHO [6] [fold]	binding result [7]	EC50 (read off the curve) [8] [µg/mL]	binding result [9]
Antibody 31 (scFv, V domains shown, scFv in crude PPE, V5/myc-tagged) VH: QVQLVQSGAEVKKPGASVKVSCKASGGTFRSYAISWVRQAPGQGLEWMGWMNPNSGNTGYAQKFQGRVTMTRDTSTSTVYMELSSLRSEDTAVYYCARESVLKGGMDVWGQGTTVTVSS VL: DIVMTQSPDSLAVSLGERATINCRSSQSLFHSSTNANNLAWYQQKPGQPPKLLIYWASTRESGVPDRFSGSGSGTDFTLTISSLQAEDVAVYYCQQYYITPLTFGQGTRLEIK	no binding (tested: fold change <2.0)	no binding (tested: fold change <2.0)	0.001 to 0.01	binds	21.3	18.1			
Antibody 18 (scFv, V domains shown, scFv in crude PPE, V5/myc-tagged) VH: QVQLVQSGAEVKKPGASVKVSCKASGYTFTGYYMHWVRQAPGQGLEWMGWMNPNSGNTGYAQKFQGRVTMTRDTSTSTVYMELSSLRSEDTAVYYCARGSGYDAGVFDYWGQGTLVTVSS VL: DIQMTQSPSSLSASVGDRVTITCRASQGIGNDLAWYQQKPGKAPKLLIYDAKDLHPGVPSRFSGSGSGTDFTLTISSLQPEDFATYYCQQSYSFPRTFGQGTRLEIK	no binding (tested: fold change <2.0)	no binding (tested: fold change <2.0)	0.001 to 0.01	binds	16.2	25.2			
Antibody 10 (scFv, V domains shown, scFv in crude PPE, V5/myc-tagged) VH: QVQLVQSGAEVKKPGASVKVSCKASGGTFSNYDISWVRQAPGQGLEWMGMIDPSGGSTSYAQKFQGRVTMTRDTSTSTVYMELSSLRSEDTAVYYCARPYSSGWYYFDYWGQGTLVTVSS VL: DIQMTQSPSSLSASVGDRVTITCQASQDIHNYLNWYQQKPGKAPKLLIYDASNLETGVPSRFSGSGSGTDFTLTISSLQPEDFATYYCQQSYNTPPTFGQGTRLEIK	no binding (tested: fold change <2.0)	no binding (tested: fold change <2.0)	0.001 to 0.01	binds	23.1	38.3			
Antibody 15 (scFv, V domains shown, scFv in crude PPE, V5/myc-tagged) VH: QVQLVQSGAEVKKPGASVKVSCKASGYSFTSYGISWVRQAPGQGLEWMGWISPYNGNTNYAQKLQGRVTMTRDTSTSTVYMELSSLRSEDTAVYYCAREAYGDYGDYFDYWGQGTLVTVSS VL: DIQMTQSPSSLSASVGDRVTITCRASQGVGDRSAWYQQKPGKAPKLLIYDASNLETGVPSRFSGSGSGTDFTLTISSLQPEDFATYYCQQADTFPYTFGQGTKLEIK	no binding (tested: fold change <2.0)	no binding (tested: fold change <2.0)	0.001 to 0.01	binds	3.71	17			
Antibody 25 (scFv, V domains shown, scFv in crude PPE, V5/myc-tagged) VH: EVQLLESGGGLVQPGGSLRLSCAASGFTVGSWYMSWVRQAPGKGLEWVAHVSDDGSNEFYADSVKGRFTISRDNSKNTLYLQMNSLRAEDTAVYYCARSPGYCSSTSCYRYYGMDVWGQGTTVTVSS VL: DIQMTQSPSSLSASVGDRVTITCRTSQSIGTYLNWYQQKPGKAPKLLIYDASNLPTGVPSRFSGSGSGTDFTLTISSLQPEDFATYYCQNYNSALFGPGTKVDIK	no binding (tested: fold change <2.0)	no binding (tested: fold change <2.0)	0.001 to 0.01	binds	10.3	19.5			
Antibody 65 (antibody, V domains shown) VH: QVQLVQSGAEVKKPGASVKVSCKASGYTFTSHDINWVRQAPGQGLEWMGWMNANNGNAGYAQKFQGRVTMTRDTSTSTVYMELSSLRSEDTAVYYCAKDLSPSSSWSTYYYYYGMDVWGQGTMVTVSS VL: DIQMTQSPSSLSASVGDRVTITCRASQSISNLLAWYQQKPGKAPKLLIYAASSLQSGVPSRFSGSGSGTDFTLTISSLQPEDFATYYCQQSYSTPYTFGQGTKLEIK							no binding (tested: about 20 µg/mL)	~0.5	no binding (tested: about 20 µg/mL)
Antibody 30 (scFv, V domains shown, scFv in crude PPE, V5/myc-tagged) VH: QVQLVQSGAEVKKPGASVKVSCKASGYTFTNFDINWVRQAPGQGLEWMGWISAYNGHTNYAQNLQGRVTMTRDTSTSTVYMELSSLRSEDTAVYYCAQEAAAGYFDYWGQGTLVTVSS VL: DIQMTQSPSSLSASVGDRVTITCRASQDIRNDLAWYQQKPGKAPKLLIYDASNLETGVPSRFSGSGSGTDFTLTISSLQPEDFATYYCQQSYGTPYTFGQGTKLEIK	no binding (tested: fold change <2.0)	no binding (tested: fold change <2.0)	0.001 to 0.01	binds	3.76	5.94			
Antibody 23 (scFv, V domains shown, scFv in crude PPE, V5/myc-tagged) VH: QVQLVQSGAEVKKPGASVKVSCKASGGTFSNYDINWVRQAPGQGLEWMGWISAYNGNTNYAQKLQGRVTMTRDTSTSTVYMELSSLRSEDTAVYYCAAEAYGDYSLDPWGQGTLVTVSS VL: DIQMTQSPSSLSASVGDRVTITCQASQGISSYLNWYQQKPGKAPKLLIYAASSLQNGVPSRFSGSGSGTDFTLTISSLQPEDFATYYCQQSYSTPITFGQGTRLEIK	no binding (tested: fold change <2.0)	no binding (tested: fold change <2.0)	0.001 to 0.01	binds	16.5	21.6			
